Measured values: article PMC7954794, “Protein context shapes the specificity of SH3 domain-mediated interactions in vivo” (Nature Communications, 2021)

Legend:
Type in all cases: cell-based, Saccharomyces cerevisiae
[1] = test system: 575 putative partners (preys) of 22 WT SH3-containing proteins; assay: DHFR-PCA on solid medium, WT and SH3-deleted baits (Fig. 1B); design: key to Score: 0: SH3-independent; 1: SH3-dependent PPIs; 2: SH3-inhibited PPIs; conditions: for medrep (log2 median colony size normalized to plate background, PCA score): label = prey
Outline: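 Interactions scored by DHFR protein-fragment complementation on solid medium using robotic pinning; preys (DHFR F[3] fusions) arrayed in duplicate with control borders. Baits carried C-terminal DHFR F[1,2]-FLAG tags, tested as wild type and as SH3-deleted versions carrying a flexible Gly/Ser stuffer.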

[2] = test system: BEM1-2; assay: DHFR-PCA on solid medium, bait BEM1-2 (Fig. 1B); conditions: bait BEM1-2, label = prey; for medrep (log2 median colony size normalized to plate background, PCA score): 2-8 replicates
Source text: (§1) Supplement 41467_2021_21873_MOESM8_ESM.xlsx, sheet "Fig1B" | column: medsize; medrep; Ratio; Score

[3] = test system: BEM1-1; assay: DHFR-PCA on solid medium, bait BEM1-1 (Fig. 1B); conditions: bait BEM1-1, label = prey; for medrep (log2 median colony size normalized to plate background, PCA score): 2-8 replicates
Source text: as §1

[4] = test system: ABP1; assay: DHFR-PCA on solid medium, bait ABP1 (Fig. 1B); conditions: bait ABP1, label = prey; for medrep (log2 median colony size normalized to plate background, PCA score): 2-4 replicates; for Ratio (SH3-deleted/WT medrep): only significant differences showed, PPIs completely lost have a ratio of 0.1 and the gained PPIs 2.5
Source text: as §1

[5] = test system: BUD14; assay: DHFR-PCA on solid medium, bait BUD14 (Fig. 1B); conditions: bait BUD14, label = prey; for medrep (log2 median colony size normalized to plate background, PCA score): 4 replicates
Source text: as §1

[6] = test system: BBC1; assay: DHFR-PCA on solid medium, bait BBC1 (Fig. 1B); conditions: bait BBC1, label = prey; for medrep (log2 median colony size normalized to plate background, PCA score): 2-4 replicates
Source text: as §1

[7] = test system: BOI2; assay: DHFR-PCA on solid medium, bait BOI2 (Fig. 1B); conditions: bait BOI2, label = prey; 3-8 replicates
Source text: as §1

[8] = test system: BOI1; assay: DHFR-PCA on solid medium, bait BOI1 (Fig. 1B); conditions: bait BOI1, label = prey; 3-8 replicates
Source text: as §1

[9] = bait SLA1-3, DHFR-PCA, Replicates 4 (2 for YCR009C, YDR388W, YIL033C)
[10] = only significant differences showed, PPIs completely lost have a ratio of 0.1 and the gained PPIs 2.5

| Molecule | medrep (log2 median colony size normalized to plate background, PCA score) [1, 9] | Score ([1]; bait SLA1-3, label = prey) | medrep (log2 median colony size normalized to plate background, PCA score) [2] | medrep (log2 median colony size normalized to plate background, PCA score) [3] | medrep (log2 median colony size normalized to plate background, PCA score) [4] | medrep (log2 median colony size normalized to plate background, PCA score) [5] | medrep (log2 median colony size normalized to plate background, PCA score) [6] | Ratio (SH3-deleted/WT medrep) [4] | also measured |
| --- | --- | --- | --- | --- | --- | --- | --- | --- | --- |
| YCR030C (protein, UniProt P25623 1-870, looked up) Suppressor of yeast profilin …: MTEQRTKYADSILTTKSPYEATETIRIRLSQVKLLNKDFYLLFKELANLKRNYAQQLRKIIAENEDITKILNAQMIESNVLTPQEMSAFRFNSLGELRNVWDTVIEELKSDLKSSTEYYNTLDQQVVRELKESVENNTSWRESKDLHSKLSKNAASIEHYSKNNENSSHLEEARRQWDQQSPYLFELFETIDYNRLDTLKNCMLRFQTSFSDYLLNTTKECETVMTKFLAFEPQSEIDRFAKDASQYNFQLSSSSKEVVPNNASPASATGARPVSVSNGAANTEREKKSPQKDKRKSAFGNIGHRLASASSSLTHNDLMNNEFSDSTNNSSLKSKKSSHTLRSKVGSIFGRNKTKNKRQQQSSSNSHIQASITETPNNSSTRVSSTATSSIYQKQRRPTYSSSKSNNWTPGEASDTPPLPPHATPKNVDAPVTADTPPAQTFTPSEVPPSTPQQSSPPTAKEPDSSNLPKTVPISISQPPLQPQSKTKPLPVEPASPSISLPTATVDNQPSGQVDSRPLHIRAPALPPSRKQNFIHNRDSQLYDSLPNHGSGATPTSSSLSSIPQERPVSTLSSQITGELRELNPQATGSSTSLVGQSLFQHSSLDTSQFGLNASIAEVLNASFKDGMLQNSQLIGEIALNYLPNSVMNSPLPIGINLRINNGAKFEKVILNQAFIERVAPEEFKVNPSFIDSRTLGAIKYSIKEPIAPIVIHPVWRFESHQASVVLTVKMSPSLPDEISQIVIEDLVVFVNIDGANATSALSKPQGSFSKEKKRITWRFKEPVVLTRNGEGQRLIARFITDGLAHESAKGVITKFTISETDNVALPHSGAGSGITLTCQELDENNPFGGEWLDVNTKRTLTTGNYHGLA | 3.1776 | 0 | 2.035 | 2.035 | 2.201 | 2.234 | – | – | medrep (log2 median colony size normalized to plate background, PCA score) ([1]; bait SLA1-2, DHFR-PCA, Replicates 4 (2 for YCR009C, YDR388W)): 3.1776; Score ([1]; bait SLA1-2, label = prey): 1; Ratio (SH3-deleted/WT medrep) ([1]; bait SLA1-2, label = prey, only significant differences shown, PPIs completely lost have a ratio of 0.1, gained PPIs 2.5): 0.1; Ratio (SH3-deleted/WT medrep) [2, 10]: 0.1; Ratio (SH3-deleted/WT medrep) [3, 10]: 0.1 |
| YKL117W (protein, UniProt P28707 2-216, looked up) Co-chaperone protein SBA1: SDKVINPQVAWAQRSSTTDPERNYVLITVSIADCDAPELTIKPSYIELKAQSKPHVGDENVHHYQLHIDLYKEIIPEKTMHKVANGQHYFLKLYKKDLESEYWPRLTKEKVKYPYIKTDFDKWVDEDEQDEVEAEGNDAAQGMDFSQMMGGAGGAGGAGGMDFSQMMGGAGGAGSPDMAQLQQLLAQSGGNLDMGDFKENDEEDEEEEIEPEVKA | 4.6716 | 0 | – | – | 3.786 | 3.847 | 1.6151 | 1.319 | Ratio (SH3-deleted/WT medrep) [6, 10]: 0.1 |
| YHR158C (protein, UniProt P38853 1-1164, looked up) Kelch repeat-containing …: MAGFSFAKKFTHKKHGKTPSDASISDQSREASLSTPPNEKFFTKQETPQKGRQFSQGYHSNVNKTSSPPMFARKQVSESRIQPSAVPPQQRNVSGPSTTLHKQLSKQREYTVWNRIKLQNSPFPRYRHVASAYVTDKNQIYVIGGLHDQSVYGDTWILTAFDNATRFSTTTIDISEATPPPRVGHAAVLCGNAFVVFGGDTHKVNKEGLMDDDIYLLNINSYKWTVPAPVGPRPLGRYGHKISIIATTQMKTKLYVFGGQFDDTYFNDLAVYDLSSFRRPDSHWEFLKPRTFTPPPITNFTMISYDSKLWVFGGDTLQGLVNDVFMYDPAINDWFIIDTTGEKPPPVQEHATVVYNDLMCVVGGKDEHDAYLNSVYFLNLKSRKWFKLPVFTAGIPQGRSGHSLTLLKNDKILIMGGDKFDYARVEEYDLHTSDIDMQRGTIVYTLDLARIKDLCPGVMDVPTDTPTPRNGNLDLATPVTPTSHQTKNMNVPISAAPLASAPSPAPKDFSDADRLNREVHNRNVSTEHQNQSHPVNSESHLIAEPNILTPYVPSESSQTPVMKITSNKPFDTPTIQKEPDLSETMDPTVGNQRIPSSIYGDNLTPANQIKNNSPILETLPSNEIKTPQNGNIEEIKHLPDADEKIDSTTTFDQEINGDKLGTSSMSKVEEDGNVADEDDEIGVAQMASSPSKDQFKIKHYNESSELSQNNTEIDKLSEPVDITIKKSDTAGHDSANHVIDASDEKNVSPMGDVPTDTKNEEASVPINRDATTEVVDRALFEKLRSELQSLKELTHEKALEAGAHIKELETELWQLKSQKNSGTTKEIDELDSVRLQSKCEILEADNHSLEDKVNELEELVNSKFLDIENLNEVIQFQNEKIKSLELEPNYKEKLEELQIEHENLSRENERLKNESKQHNEDIINNVANYSSQLGSLISHWKENRANSSFLESSSSLISVSDENGEKTVGEPYGDQSRHHRVVINKLTNRLDDLLERSQELTISKEKLSSEYHALKMEHSSLSQDVLVKENEIKKIQNDYKESISSMDSASKALMVSQRELEKYKSLNKKLIDELDELKFKNGVCSENFENGLRSTEESSNNVKNSNSIRENQFNIKINDLKAELFITNQERDDLKSEVLELKKRLLNLENNTKQVNEDADSDLL | – | – | – | – | – | 3.841 | – | – | – |
| YLR332W (protein, UniProt P36027 26-376, looked up) Cell wall integrity sensor …: QFFVQSSSSNSSAVSTARSSVSRVSSSSSILSSSMVSSSSADSSSLTSSTSSRSLVSHTSSSTSIASISFTSFSFSSDSSTSSSSSASSDSSSSSSFSISSTSATSESSTSSTQTSTSSSSSLSSTPSSSSSPSTITSAPSTSSTPSTTAYNQGSTITSIINGKTILSNHYTTVTYTPSATADSSNKSKSSGLSKKNRNIVIGCVVGIGVPLILVILALIYMFCIQSSRTDFIDSDGKVVTAYRANKFTKWWYMLLGKKVSDEYHSDSPLGGSASSAGGLDLDEADDVMEQSSLFDVRIRDSDSVLPNANTADHNNTNSGGEPINSSVASNDIIEEKFYDEQGNELSPRNY | – | – | 4.445 | 4.445 | 3.345 | 1.439 | 4.7031 | 1.326 | medrep (log2 median colony size normalized to plate background, PCA score) [7]: 4.169; medrep (log2 median colony size normalized to plate background, PCA score) [8]: 3.534 |
| YER149C (protein, UniProt P40091 1-420, looked up) Protein PEA2: MHKFDLELSRRANPLLFSAERYEEYPLKYDELKQYLLSQNPSHPHHNSRPYTSIDYFDYLLYRSKNDESEIDLDKKLVSEFALYYVQKEHLNSDDLNPTLNELLKLQPKSADWYEMMLRILESINTTGIDQLTKENNNSFPNSKRARSSTNMGGTDKFNKGAYHTDKADDDKNEILQELTSFLMSNSIQKGIDIKPIPLDDPVKFLKNGINSILDTCVSLEKNTSSPPISPNAAAIQEEDSSKKLEELETAFSDLQLAHNFLTKQFENDRAEYVQDIEKLTRTNRELQDKLLNNHSNLSKTEKKLHELEQENKELEKANNKLNSSRHNFGMSSPASSPVTWDPSSPSSVGSPTSGSGSRSLSIMTSEFKKVLTSTQRKYEKELSDEREHRFKLERELALLKNAEANTSLALNRDDPPDML | – | – | – | – | – | 1.879 | – | – | Ratio (SH3-deleted/WT medrep) [5, 10]: 0.1 |
